{
  "source": "paper PMC11187106",
  "about": "“Master corepressor inactivation through multivalent SLiM-induced polymerization mediated by the oncogene suppressor RAI2” (Nature Communications, 2024)",
  "binders": {"B1": {"name": "RAI2(WT, 303-362) (domain or fragment)", "chain": "SRHTVIKMGSENEALDLSMKSVPWLKAGEVSPPIFQEDAALDLSVAAHRKSEPPPETLYD", "notes": "this construct came from the same vector (pETGB1a, TEV site) and may carry the same residues; source: E. coli BL21 DE3 LOBSTR, purified (HisTrap, TEV cleavage, Superdex 75); not shown: His6, N-terminal, cleaved"}, "B2": {"name": "RAI2(M1, 303-362) (domain or fragment)", "chain": "B1 chain with L17A, S18A", "notes": "source: E. coli BL21 DE3 LOBSTR, purified (HisTrap, TEV cleavage, Superdex 75); not shown: His6, N-terminal, cleaved"}, "B3": {"name": "RAI2(M2, 303-362) (domain or fragment)", "chain": "B1 chain with L43A, S44A", "notes": "as for B2"}, "B4": {"name": "RAI2(Δ11, 303-362) (domain or fragment, UniProt Q9Y5P3 303-362, looked up)", "chain": "SRHTVIKMGSENEALDLSMKSVPWLKAGALDLSVAAHRKSEPPPETLYD", "notes": "as for B2"}, "B5": {"name": "RAI2(WT, 303-465) (domain or fragment)", "chain": "SRHTVIKMGSENEALDLSMKSVPWLKAGEVSPPIFQEDAALDLSVAAHRKSEPPPETLYDSGASVDSSGHTVMEKLPSGMEISFAPATSHEAPAMMDSHISSSDAATEMLSQPNHPSGEVKAENNIEMVGESQAAKVIVSVEDAVPTIFCGKIKGLSGVSTKN", "notes": "this construct came from the same vector and may carry the same residues; source: E. coli BL21 DE3 LOBSTR, purified (HisTrap, TEV cleavage, Superdex 75); not shown: His6, N-terminal, cleaved"}, "B6": {"name": "RAI2(WT, 303-530) (domain or fragment)", "chain": "SRHTVIKMGSENEALDLSMKSVPWLKAGEVSPPIFQEDAALDLSVAAHRKSEPPPETLYDSGASVDSSGHTVMEKLPSGMEISFAPATSHEAPAMMDSHISSSDAATEMLSQPNHPSGEVKAENNIEMVGESQAAKVIVSVEDAVPTIFCGKIKGLSGVSTKNFSFKREDSVLQGYDINSQGEESMGNAEPLRKPIKNRSIKLKKVNSQEIHMLPIKKQRLATFFPRK"}, "B7": {"name": "RAI2(WT, 303–362) (domain or fragment, human, UniProt Q9Y5P3 303-362, looked up)", "chain": "B1 chain", "notes": "15N/13C-labelled for NMR; A residue of the TEV site (ENLYFQG) may remain at the N-terminus; PDB 8ARI holds the Δ11 variant of the same limits; source: E. coli BL21 DE3 LOBSTR, purified (HisTrap, TEV cleavage, Superdex 75); not shown: His6, N-terminal, cleaved"}, "B8": {"name": "RAI2(M1, 303–362) (domain or fragment)", "chain": "B1 chain with L17A, S18A", "notes": "15N-labelled for NMR; PDB 8ARI holds the Δ11 variant of the same limits; source: E. coli BL21 DE3 LOBSTR, purified (HisTrap, TEV cleavage, Superdex 75); not shown: His6, N-terminal, cleaved"}, "B9": {"name": "RAI2(M2, 303–362) (domain or fragment)", "chain": "B1 chain with L43A, S44A", "notes": "as for B8"}, "B10": {"name": "RAI2(M1, 303–465) (domain or fragment)", "chain": "B5 chain with L17A, S18A", "notes": "PDB 8ATI holds the M2 variant of the same limits; source: E. coli BL21 DE3 LOBSTR, purified (HisTrap, TEV cleavage, Superdex 75); not shown: His6, N-terminal, cleaved"}, "B11": {"name": "RAI2(M2, 303–465) (domain or fragment)", "chain": "B5 chain with L43A, S44A", "notes": "only residues 315-321 (EALDLSM) are seen in the crystal structure; source: E. coli BL21 DE3 LOBSTR, purified (HisTrap, TEV cleavage, Superdex 75); not shown: His6, N-terminal, cleaved"}, "B12": {"name": "RAI2(WT, 303–530) (domain or fragment)", "chain": "B6 chain", "notes": "as for B2"}, "B13": {"name": "RAI2(WT, 303-362) (domain or fragment)", "chain": "B1 chain", "notes": "Cloned in pETGB1a with a TEV site; also called Retinoic Acid-Induced 2; source: E. coli BL21 DE3 LOBSTR, purified (HisTrap, TEV cleavage, Superdex 75); not shown: His6, N-terminal, cleaved"}, "B14": {"name": "RAI2(M1, 303-362) (domain or fragment)", "chain": "B1 chain with L17A, S18A", "notes": "as for B2"}, "B15": {"name": "RAI2(M2, 303-362) (domain or fragment)", "chain": "B1 chain with L43A, S44A", "notes": "as for B2"}},
  "details_in_all_cases": "both partners purified",
  "key": {"CtBP1(WT, FL) [1]": {"biological_target": "CtBP1(WT, FL) (human, UniProt Q13363 1-440)", "experiment": "ITC; VP-ITC, 25 °C, 50 mM HEPES (pH 7.2), 150 mM NaCl; CtBP in the cell (10 µM for RAI2 M1 or M2, 20 µM for the WT RAI2 constructs), RAI2 in the syringe (100 µM); mean of three independent measurements ± SD"}, "CtBP1(K46W) [2]": {"biological_target": "CtBP1(K46W) (human, UniProt Q13363 1-440, K46W)", "experiment": "ITC; VP-ITC, 25 °C, 50 mM HEPES (pH 7.2), 150 mM NaCl; CtBP in the cell (10 µM for RAI2 M1 or M2, 20 µM for the WT RAI2 constructs), RAI2 in the syringe (100 µM); mean of three independent measurements ± SD"}, "CtBP1(WT, FL) [3]": {"biological_target": "CtBP1(WT, FL) (human, UniProt Q13363 1-440)", "experiment": "ITC; VP-ITC, 25 °C, 50 mM HEPES (pH 7.2), 150 mM NaCl; CtBP in the cell (10 µM for RAI2 M1 or M2, 20 µM for the WT RAI2 constructs), RAI2 in the syringe (100 µM); mean of three independent measurements ± SD", "remark": "listed apart in the source"}, "CtBP1(WT, FL) [4]": {"biological_target": "T1, CtBP1(WT, FL) (human, UniProt Q13363 1-440)", "experiment": "ITC; VP-ITC, 25 °C, 50 mM HEPES (pH 7.2), 150 mM NaCl; CtBP in the cell (10 µM for M1 or M2, 20 µM for WT RAI2 constructs), RAI2 constructs in the syringe (100 µM); mean of three measurements"}, "CtBP1(K46W) [5]": {"biological_target": "CtBP1(K46W) (human, UniProt Q13363 1-440, K46W)", "experiment": "ITC; VP-ITC, 25 °C, 50 mM HEPES (pH 7.2), 150 mM NaCl; CtBP in the cell (10 µM for M1 or M2, 20 µM for WT RAI2 constructs), RAI2 constructs in the syringe (100 µM); mean of three measurements"}, "CtBP1(WT, FL) [6]": {"biological_target": "T1, CtBP1(WT, FL)", "experiment": "SEC; analytical Superose 6 3.2/300 GL, 50 mM HEPES (pH 7.2), 150 mM NaCl; CtBP kept at 100 µM, RAI2 variants titrated at 1:0.1, 1:0.2, 1:0.5, 1:1 and 1:2"}, "CtBP1(WT, FL) [7]": {"biological_target": "CtBP1(WT, FL) (human, UniProt Q13363 1-440)", "experiment": "ITC; VP-ITC, 25 °C, 50 mM HEPES (pH 7.2), 150 mM NaCl; CtBP1 in the cell (20 µM for WT RAI2, 10 µM for M1 or M2), RAI2(303-362) variants 100 µM in the syringe; mean of three independent measurements"}},
  "note": "Where a chain is given by its changes, count along the chain named.",
  "data": [
    {"binder": "B1", "values": [
      {"measurement": "Kd", "setting": "CtBP1(WT, FL) [1]", "value": 1.1, "unit": "µM"},
      {"measurement": "stoichiometry N", "setting": "CtBP1(WT, FL) [1]", "value": 0.42},
      {"measurement": "Kd", "setting": "CtBP1(K46W) [2]", "value": 4.5, "unit": "µM"},
      {"measurement": "stoichiometry N", "setting": "CtBP1(K46W) [2]", "value": 0.26}
    ]},
    {"binder": "B2", "values": [
      {"measurement": "Kd", "setting": "CtBP1(WT, FL) [1]", "value": 5.5, "unit": "µM"},
      {"measurement": "stoichiometry N", "setting": "CtBP1(WT, FL) [1]", "value": 0.78}
    ]},
    {"binder": "B3", "values": [
      {"measurement": "Kd", "setting": "CtBP1(WT, FL) [1]", "value": 3.9, "unit": "µM"},
      {"measurement": "stoichiometry N", "setting": "CtBP1(WT, FL) [1]", "value": 0.84}
    ]},
    {"binder": "B4", "values": [
      {"measurement": "Kd", "setting": "CtBP1(WT, FL) [1]", "value": 0.8, "unit": "µM"},
      {"measurement": "stoichiometry N", "setting": "CtBP1(WT, FL) [1]", "value": 0.41},
      {"measurement": "Kd", "setting": "CtBP1(K46W) [2]", "value": 7.2, "unit": "µM"},
      {"measurement": "stoichiometry N", "setting": "CtBP1(K46W) [2]", "value": 0.29}
    ]},
    {"binder": "B5", "values": [
      {"measurement": "Kd", "setting": "CtBP1(WT, FL) [1]", "value": 1.5, "unit": "µM"},
      {"measurement": "stoichiometry N", "setting": "CtBP1(WT, FL) [1]", "value": 0.32}
    ]},
    {"binder": "B6", "values": [
      {"measurement": "Kd", "setting": "CtBP1(WT, FL) [3]", "value": 1.5, "unit": "µM"},
      {"measurement": "stoichiometry N", "setting": "CtBP1(WT, FL) [3]", "value": 0.34}
    ]},
    {"binder": "B7", "values": [
      {"measurement": "fold change in binding stoichiometry against M1 and M2", "setting": "CtBP1(WT, FL) [4]", "value": "~2", "unit": "fold"},
      {"measurement": "fold increase in binding affinity against M1 and M2", "setting": "CtBP1(WT, FL) [4]", "value": 5, "unit": "fold"},
      {"measurement": "stoichiometry N", "setting": "CtBP1(WT, FL) [4]", "value": 0.5},
      {"measurement": "stoichiometry N", "setting": "CtBP1(K46W) [5]", "value": "< 0.3"}
    ]},
    {"binder": "B8", "values": [
      {"measurement": "Kd", "setting": "CtBP1(WT, FL) [4]", "value": "~5", "unit": "µM"}
    ]},
    {"binder": "B9", "values": [
      {"measurement": "Kd", "setting": "CtBP1(WT, FL) [4]", "value": "~5", "unit": "µM"}
    ]},
    {"binder": "B10", "values": [
      {"measurement": "binding result", "setting": "CtBP1(WT, FL) [6]", "value": "binds"}
    ]},
    {"binder": "B11", "values": [
      {"measurement": "binding result", "setting": "CtBP1(WT, FL) [6]", "value": "binds"}
    ]},
    {"binder": "B12", "values": [
      {"measurement": "binding result", "setting": "CtBP1(WT, FL) [4]", "value": "binds"}
    ]},
    {"binder": "B13", "values": [
      {"measurement": "Kd", "setting": "CtBP1(WT, FL) [7]", "value": 1.09, "unit": "µM"},
      {"measurement": "stoichiometry N", "setting": "CtBP1(WT, FL) [7]", "value": 0.42}
    ]},
    {"binder": "B14", "values": [
      {"measurement": "Kd", "setting": "CtBP1(WT, FL) [7]", "value": 5.53, "unit": "µM"},
      {"measurement": "stoichiometry N", "setting": "CtBP1(WT, FL) [7]", "value": 0.785}
    ]},
    {"binder": "B15", "values": [
      {"measurement": "Kd", "setting": "CtBP1(WT, FL) [7]", "value": 3.87, "unit": "µM"},
      {"measurement": "stoichiometry N", "setting": "CtBP1(WT, FL) [7]", "value": 0.836}
    ]}
  ]
}
